In patent US20220348685A1 (ACCELERON PHARMA, published 2022):
Numbering of substitutions follows the chain as printed.

T1: human ALK7-EK-Fc comprising protein (human, UniProt Q8NER5 22-113)
T1 construct: also called ALK7-Fc comprising protein; Human ALK7-Fc comprising protein; not shown: 'EK' segment between ALK7 and Fc; Fc portion
T1 sequence: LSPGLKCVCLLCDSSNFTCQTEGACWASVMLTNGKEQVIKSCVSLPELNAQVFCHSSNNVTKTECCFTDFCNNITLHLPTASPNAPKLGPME

B1: P03 (antibody, V domains shown)
VH: QVQLVQSGAEVKKPGASVKVSCKASGYTFAGYNMHWVRQAPGQGLEWVGIINPNSGWTNYAQKFQGRVTMTRDTSVSAAYMELSRLRSDDTAVYYCARDPVGARYEVFDYWGQGTLVTVSS
VL: EIVMTQSPATLSVSPGERATLSCQASQSVSSNLAWYQQKPGQAPRLLIYGASTIATGIPARFSGSGSGTEFTLTISSLQSEDFAVYYCQQAYAFPLTFGGGTKVEIK
B2: Q04 (antibody, V domains shown)
VH: B1 VH
VL: B1 VL with Q24K, I54R, Y92V, A93K
B3: M01 (antibody, V domains shown)
VH: QLQLQESGPGLVKPSETLSLTCTVSGGSISSSAYYWAWIRQPPGKGLEWIGSIYLSGSTTYNPSLKSRVTISVDTSKNQFSLKLSSVTAADTAVYYCARDGRYQSRSPDYYYGMDVWGQGTTVTVSS
VL: EIVLTQSPGTLSLSPGERATLSCRASQSVSDNYLAWYQQKPGQAPRLLIYGASNIATGIPDRFSGSGSGTDFTLTISRLEPEDFAVYYCASVFSYPFTFGGGTKVEIK
notes: Kappa light chain is implied by the anti-kappa reagent and KappaSelect; In SPR the antibody was captured on a custom FAB chip; also called ALK7 mAb M01
B4: N02 (antibody, V domains shown)
VH: B3 VH
VL: B3 VL with D31S, N32S, N54S, I55T, T57Y, A90Q, S91Q, V92L, F93V, S94A

target: T1, human ALK7-EK-Fc comprising protein; experiment: SPR (Biacore T100/T200), antibody captured on FAB chip, ALK7-Fc protein as analyte, 1:1 model
Description: Experiments were performed using a Biacore T100/T200 biosensor (Biacore/GE Healthcare) at 25 and 37° C. ALK7 antibodies were captured on custom made FAB chip. A concentration series of ALK7-Fc comprising protein was injected over the flow cells at a flow rate of […]. To obtain kinetic rate constants the corrected data were fit to a 1:1 interaction model using BiaEvaluation software (GE Healthcare). The equilibrium binding constant KD was determined by the ratio of binding rate constants kd/ka.

Question: What does the source list for B1?
Answer: Kd: 0.39 nM; koff: 1.43e-05 s⁻¹; kon: 36600 M⁻¹ s⁻¹

Question: Which Kd does the source give for B2 here?
Answer: Its Kd is 1.42 nM.

Question: And the koff?
Answer: The koff was 4.7e-05 s⁻¹.

Question: And the kon?
Answer: Its kon is 33100 M⁻¹ s⁻¹.

Question: Which Kd does the source give for B3 here?
Answer: Its Kd is 1 nM.

Question: What about the koff of the same binder?
Answer: The koff was 4.32e-05 s⁻¹.

Question: What about the kon of the same binder?
Answer: Its kon is 43100 M⁻¹ s⁻¹.

Question: Which results are given for B4?
Answer: Kd: 0.87 nM; koff: 5.2e-05 s⁻¹; kon: 59800 M⁻¹ s⁻¹
